Results taken from publication doi:10.1101/2020.06.04.133611 (bioRxiv, 2020).

B1: MlaE (natural protein)
chain: MLLNALASLGHKGIKTLRTFGRAGLMLFNALVGKPEFRKHAPLLVRQLYNVGVLSMLIIVVSGVFIGMVLGLQGYLVLTTYSAETSLGMLVALSLLRELGPVVAALLFAGRAGSALTAEIGLMRATEQLSSMEMMAVDPLRRVISPRFWAGVISLPLLTVIFVAVGIWGGSLVGVSWKGIDSGFFWSAMQNAVDWRMDLVNCLIKSVVFAITVTWISLFNGYDAIPTSAGISRATTRTVVHSSLAVLGLDFVLTALMFGN
B2: MlaF (natural protein)
chain: MEQSVANLVDMRDVSFTRGNRCIFDNISLTVPRGKITAIMGPSGIGKTTLLRLIGGQIAPDHGEILFDGENIPAMSRSRLYTVRKRMSMLFQSGALFTDMNVFDNVAYPLREHTQLPAPLLHSTVMMKLEAVGLRGAAKLMPSELSGGMARRAALARAIALEPDLIMFDEPFVGQDPITMGVLVKLISELNSALGVTCVVVSHDVPEVLSIADHAWILADKKIVAHGSAQALQANPDPRVRQFLDGIADGPVPFRYPAGDYHADLLPGS

Key:
[1] = target: Strep-tagged MlaDΔTM (E. coli K-12); test: SDS-PAGE of the purified protein
[2] = target: the molecule itself; test: cryo-EM structure

Molecule | stoichiometry N [1] | stoichiometry N [2]
Strep-tagged MlaDΔTM (domain or fragment) | 6 | –
B1 | – | 2
B2 | – | 2
